Laboratory results published in patent CN114426582A (SHAANXI PULSE ELEMENT BIOTECHNOLOGY LTD COMPANY, dated 2022).
Each block holds one binder with its values, some of them ahead of it.

Tests used:
[1] = target: T1, 纯化的ENO2蛋白 (coating protein of the Example 7 ELISA) (human, UniProt P09104 1-434); assay: ELISA, ENO2-coated plate (100 ng/well), 293T supernatant, HRP anti-IgG / anti-kappa secondary
T1 construct: also called 抗原ENO2

[2] = target: T2, ENO2-GST (human ENO2 expressed from pGEX 4t-1, GST-column purified) (human, UniProt P09104 1-434); assay: ELISA screening of hybridoma supernatants on ENO2-GST coated plates
T2 construct: Expressed in E. coli BL21(DE3) and used to coat ELISA plates at 100 ng/well; also called pGEX 4t-1载体表达的ENO2; ENO2-4t-1; not shown: GST tag supplied by vector pGEX 4t-1
T2 sequence (P09104 whole entry): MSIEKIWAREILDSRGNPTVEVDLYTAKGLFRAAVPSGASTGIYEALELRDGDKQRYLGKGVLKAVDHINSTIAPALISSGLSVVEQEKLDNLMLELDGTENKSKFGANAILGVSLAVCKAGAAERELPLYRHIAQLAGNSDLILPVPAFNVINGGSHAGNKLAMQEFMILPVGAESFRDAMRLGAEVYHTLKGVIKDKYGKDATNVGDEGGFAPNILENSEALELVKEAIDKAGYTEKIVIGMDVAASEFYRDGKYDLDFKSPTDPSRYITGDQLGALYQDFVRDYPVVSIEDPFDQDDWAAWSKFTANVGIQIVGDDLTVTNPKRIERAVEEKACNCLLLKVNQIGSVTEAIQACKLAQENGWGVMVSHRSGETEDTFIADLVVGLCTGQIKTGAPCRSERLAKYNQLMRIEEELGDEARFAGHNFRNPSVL

[3] = target: T3, ENO2flag (ENO2 with C-terminal flag tag, pcDNA3.1, expressed in 293T cells) (human, UniProt P09104 2-434, limits assumed); assay: Western blot, lysate of 293T cells transfected with ENO2flag-pcDNA3.1, hybridoma supernatant
T3 construct: Tested as a lysate of transfected 293T cells (Western blot) and in acetone-fixed transfected 293T cells (immunofluorescence); also called ENO2flag-pcDNA3.1; ENO2抗原; not shown: C-terminal flag tag
T3 sequence (P09104 2-434 limits assumed): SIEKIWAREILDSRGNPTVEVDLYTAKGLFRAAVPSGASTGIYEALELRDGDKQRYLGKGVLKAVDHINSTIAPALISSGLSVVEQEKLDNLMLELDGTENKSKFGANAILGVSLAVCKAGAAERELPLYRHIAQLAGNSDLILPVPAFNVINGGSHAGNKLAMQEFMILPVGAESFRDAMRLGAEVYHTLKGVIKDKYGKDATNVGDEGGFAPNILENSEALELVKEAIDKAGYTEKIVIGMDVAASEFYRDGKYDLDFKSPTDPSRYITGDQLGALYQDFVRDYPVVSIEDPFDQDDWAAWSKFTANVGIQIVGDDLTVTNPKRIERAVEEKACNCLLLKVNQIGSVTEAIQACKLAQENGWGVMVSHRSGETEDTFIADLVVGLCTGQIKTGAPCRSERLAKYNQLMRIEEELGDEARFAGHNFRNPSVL

T1 sequence (P09104 whole entry): as the sequence (P09104 whole entry) above

binding result [1]: no binding
B1: 重组4C11抗体轻链4C11mk (transfected alone) (other)
light: DIQMTQTTSSLSASLGDRVTISCRASQDISNYLNWYQQKPDGTVKLLIYYTSRLHSGVPSRFSGSGSGTDYSLTISNLEQEDIATYFCQQGNTLPYTFGGGTRLEIRRADAAPTVSIFPPSSEQLTSGGASVVCFLNNFYPKDINVKWKIDGSERQNGVLNSWTDQDSKDSTYSMSSTLTLTKDEYERHNSYTCEATHKTSTSPIVKSFNRNEC
notes: Light chain only, with no heavy chain; tested as 293T culture supernatant

binding result [2]: binds | binding result [3]: binds
B2: 抗神经特异性烯醇化酶的单克隆抗体4C11 (hybridoma-derived) (antibody, V domains shown)
VH: EVKLVESGGGLVQPGGSLRLSCATSGFTFTDYYMSWVRQPPGKALEWLGFIRNKANGYTTEYSASVKGRFTISRDNSQSILYLQMNTLRAEDSATYYCARDGDGSARWGQGTLVTVSA
VL: DIQMTQTTSSLSASLGDRVTISCRASQDISNYLNWYQQKPDGTVKLLIYYTSRLHSGVPSRFSGSGSGTDYSLTISNLEQEDIATYFCQQGNTLPYTFGGGTRLEIR
notes: Mouse hybridoma antibody; It was tested as hybridoma supernatant or ascites; also called 4C11单克隆抗体

binding result [1]: no binding
B3: 重组4C11抗体重链4C11mG1 (transfected alone) (other)
heavy: B2 VH
notes: Heavy chain only, with no light chain; tested as 293T culture supernatant; not shown: mouse IgG1 heavy-chain constant region supplied by vector pFUSE-CHIg-mG1 (invivogen)
